For 167 variants, self-cleavage results are on record in the RNAGym collection of RNA variant scans (doi:10.7554/elife.90254).

The chains are these.
B1: OR4K15 (parent)
chain: GUUAACGGUCAUAGGCCAUGGAAACUAGGAGCACCAUUUCGCUGCCAGUGAAGAAAUGAACAAAGAAAAUCUGGGCCAGGCAGGCAUCAAAAGAAAUAGUCUUGCGCUCAACCAGAAAGUCUGUAAUCAUUUUAAGGGUA

The variants in the series derive from B1. The series can be described thus: self-cleavage, relative activity (ratio to wild type); higher = more cleavage; in vitro, sequencing; the parent is a self-cleaving ribozyme.
Consider U2C A51G, for which the self-cleavage amounted to 0.84.
Then U2C A51U, with 0.82; and U2C U124C, with 0.42.
Then U3C A30U, with 1.37.
Then U2C A140G, with 0.72; and U2C G84A, with 1.46.
With A4U U19C, the self-cleavage is 0.7.
Take A4G U39A: the self-cleavage turned out to be 1.27.
For A4G A86G the value was 0.72.
For A4G A86U the value was 0.95; for U3G A30G, 1.12; for U2G U9C, 1.05.
Regarding A4G C88U, the self-cleavage is 0.96.
Then A4G C88G, with 1.46; and A4G C35A, with 1.14.
For U3C U72A the value was 0.17; for U2G G93U, 1.01; for U3C U39G, 1.72.
Turning to U2C G28U, the self-cleavage amounted to 2.17.
Then U2C G14A, with 1.39.
For A4U U133C the value was 1.79; for U2C G75U, 0.27; for A4G, 0.87.
Then A4C, with 0.61.
In the case of A4U, the self-cleavage came out at 1.19.
Then U2G U39C, with 2.03; and U3A A64G, with 1.11.
As to U2C A60U, the self-cleavage was 1.67.
For U2C C76A the value was 0.1; for U3C A86G, 1.05.
For U3C A86C the value was 0.37; for A4G A129G, 0.78; for U2C U131G, 1.08.
For U2C U3C the value was 0.98.
Take A5C U38C: the self-cleavage is 1.28.
For U2C A68G, the self-cleavage was determined as 1.13.
Turning to U2C C112U, the self-cleavage was determined as 0.
As to U2C U103C, the self-cleavage is 0.99.
On to U2C A125G, for which the self-cleavage amounted to 0.55.
Then U3A G53A, with 1.01; and U3C A51C, with 0.84.
Turning to U3C A51U, the self-cleavage turned out to be 1.27.
Then U2G A92G, with 0.73; and A4G U49A, with 0.8.
For A4G U49C the value was 0.82; for A4G A110U, 1.15; for U3C U57C, 1.28.
On to U3C U57A, for which the self-cleavage turned out to be 0.88.
Then U2G U132C, with 1.4; and U2C A78C, with 0.4.
For U2C A78U the value was 0.09.
For U2A U108C, the self-cleavage came to 0.04.
For A4G U37C the value was 0.91; for U3C C109G, 0.04.
For U3C A11G the value was 1.34.
Turning to U2C A54G, the self-cleavage amounted to 0.68.
Then U2C A54U, with 1.61.
Then U2C A33C, with 0.88; and U2C C128A, with 0.85.
U2C A24G: the self-cleavage stood at 1.09.
On to A4U A13G, for which the self-cleavage amounted to 1.23.
For U2G U57C the value was 1.13; for A5C U100C, 1.25; for A4G A116G, 0.94.
For A4G A116U the value was 0.26.
Then U3C C101U, with 0.51; and U2C U38A, with 1.07; and U2C U38C, with 1.09.
As for U3G A11U, the self-cleavage was found to be 0.74.
Then U2C A129U, with 0.84.
Then U2C A129G, with 0.75; and U3C U37C, with 1.05.
For U2G A116G the value was 0.37; for U2G A33G, 0.43; for U2C U132C, 1.4.
For the variant A4G A78G, the self-cleavage is 0.59.
For U3C G7A the value was 0.99; for A4G U70C, 0.79; for A4G C113U, 0.19.
For U3C C105U the value was 0.06.
For A4G G50U, the self-cleavage came out at 1.39.
For U3C A117G the value was 1.69.
For A5C U122C the value was 0.99.
For the variant A4G C77U, the self-cleavage stood at 1.45.
For U3G A110U the value was 1.67.
For U2C C109U the value was 0.29; for A4C U43A, 0.94; for A4G A27G, 1.52.
U2C U100A: the self-cleavage is 0.48.
For A4G A64C the value was 0.79; for U2A U87A, 1.32; for A4G U132C, 0.72.
Consider A4G U132A, for which the self-cleavage came out at 0.44.
A4U A140U: the self-cleavage worked out at 1.5.
For the variant A5C A60G, the self-cleavage worked out at 1.88.
On to U3G A52G, for which the self-cleavage is 0.67.
Regarding A4G G137U, the self-cleavage stood at 2.
Then U3C U124C, with 0.9; and U3C U103A, with 0.64; and U3C G84C, with 0.37.
Then U2A U49C, with 1.68; and A5C A98G, with 0.42.
For U2C A13G the value was 0.99; for U2C C25U, 1.85; for A4G A59G, 1.04.
In the case of U3A A18G, the self-cleavage came to 1.11.
A5C U127C: the self-cleavage worked out at 0.89.
For U2C A66C the value was 0.66; for A4G A55U, 1.33.
Then A4U A47G, with 0; and A4G G74C, with 0.36; and A4G A117U, with 0.81.
Then A4G A117G, with 1.18.
For the variant U3C A66G, the self-cleavage amounted to 1.45.
As for U3C U87C, the self-cleavage was found to be 0.63.
Then U2C G74U, with 0.08.
For U2C G74A the value was 0.18; for A4G A47C, 0.42; for U2G A111U, 0.17.
For U2G A111G the value was 0.
As for A4G A62G, the self-cleavage was found to be 1.09.
As to U3A A92G, the self-cleavage is 1.3.
For A4G A24G the value was 1.62.
Then U2C A89G, with 0.63; and U2C A89U, with 1.7.
Consider U2C G53U, for which the self-cleavage is 1.64.
For U2C A114C, the self-cleavage worked out at 0.03.
Then A5C A59U, with 1.73; and A5C G106U, with 0.07; and U2C A95U, with 0.99.
For U2C A95G the value was 1.53; for A4G A60G, 1.27; for U3C A22G, 1.33.
For the variant U2A G106A, the self-cleavage came to 0.06.
Take A4G A111G: the self-cleavage was 0.1.
Then U3A A22G, with 1.2; and A4G C85U, with 0.99; and U2C A98G, with 0.57.
For A4U A59U the value was 1.95; for A4G A33G, 1.14; for A4U U70C, 0.89.
Then U2G U3C, with 1.11.
In the case of U3C U9A, the self-cleavage stood at 0.85.
As to U3C U9C, the self-cleavage stood at 1.36.
For U2G U12A the value was 1.45; for U2G U12C, 0.61; for U3C A60G, 0.93.
For U2C A135U the value was 0.5.
For U2C A67G the value was 1.13.
As for U2C A67U, the self-cleavage was found to be 0.85.
Regarding A4G C105U, the self-cleavage is 0.14.
Consider U3A A89G, for which the self-cleavage came out at 1.51.
A4G U131C: the self-cleavage came out at 1.45.
For the variant U2A U43G, the self-cleavage came to 1.11.
Then U2C A47G, with 1.28; and U2C A47U, with 0.86.
Regarding U3A U131C, the self-cleavage was determined as 0.64.
Turning to U3A A116G, the self-cleavage turned out to be 0.32.
With U3C A63U, the self-cleavage worked out at 1.02.
As for A4G A54G, the self-cleavage amounted to 0.55.
For U2C U108A the value was 0.01; for U3C C32U, 1.2.
Then A4U U132C, with 2.14.
Then U2A U102A, with 1.51; and U3C A129G, with 1.14.
For A4U A30U, the self-cleavage worked out at 1.05.
For U3C A140G the value was 0.65.
